Numbering of substitutions follows the chain as printed. In names and notes the source's numbering stands.
T1: E. aridi E1^BilD (1-507, C417A) (Ensifer aridi TW10, C417A)
T1 chain: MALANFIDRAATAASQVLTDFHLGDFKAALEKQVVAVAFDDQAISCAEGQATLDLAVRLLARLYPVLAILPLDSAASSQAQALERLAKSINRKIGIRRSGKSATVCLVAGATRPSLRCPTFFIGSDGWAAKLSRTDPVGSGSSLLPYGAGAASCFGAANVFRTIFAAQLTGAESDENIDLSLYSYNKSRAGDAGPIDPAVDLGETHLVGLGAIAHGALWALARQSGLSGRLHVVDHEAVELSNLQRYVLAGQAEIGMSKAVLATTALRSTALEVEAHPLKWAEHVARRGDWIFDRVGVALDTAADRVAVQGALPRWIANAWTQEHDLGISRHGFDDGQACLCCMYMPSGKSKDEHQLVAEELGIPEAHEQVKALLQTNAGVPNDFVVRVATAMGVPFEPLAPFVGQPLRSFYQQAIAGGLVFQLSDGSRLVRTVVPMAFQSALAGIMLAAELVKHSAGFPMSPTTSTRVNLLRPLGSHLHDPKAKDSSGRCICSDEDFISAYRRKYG

B1: E. aridi Ubl^BilA (17-97) (domain or fragment, Ensifer aridi TW10)
chain: KIEIIVVVNGQPTQVEANPNQPLHVVRTKALENTQNVAQPPDNWEFKDEAGNLLDVDKKIGDFGFANTVTLFLSLKAGVAG
B2: E. aridi E2^BilB (1-181, wild type) (enzyme, Ensifer aridi TW10)
chain: MPELQTVDPEVSRAKFDREISRFRPYADAYRMQGCFLIEESFPSAFFIFASPKVKPRVIGAAIEIDFTNYDLRPPSVVFVDPFTRQPIARKDLPLNMLRRPQLPGTPPEMISNLIQQNAVSLTDFIQANSLQDSPFLCMAGVREYHDNPAHSGDPWLLHRGSGEGCLAFILDKIIKYGTGP
B3: E. aridi E2^BilB (1-181) Mutant 1 (F36R/I48A/I59K/F83E) (enzyme, Ensifer aridi TW10)
chain: B2 chain with F36R, I48A, I59K, F83E
B4: E. aridi E2^BilB (1-181) Mutant 2 (F36R/I38A/F46K/I48A/I59K/F83E) (enzyme, Ensifer aridi TW10)
chain: B2 chain with F36R, I38A, F46K, I48A, I59K, F83E

Legend:
[1] = target: T1, E. aridi E1^BilD (1-507, C417A); test: SEC-MALS
SEC-MALS = target: the molecule itself; test: SEC-MALS

| Binder | binding result [1] | stoichiometry N (SEC-MALS) |
| --- | --- | --- |
| B1 | binds |  |
| B2 | binds | 2 |
| B3 | binds |  |
| B4 | binds |  |

From publication PMC11476048 (Nature, 2024)
